# Measured values as given in US20260258115A1 (MAPP BIOPHARMACEUTICAL, published 2026).
# Target: RSV F on RSV-A2 virus (Respiratory Syncytial Virus (RSV-A2), UniProt P03420 26-574)
# Assay: cell-based or functional assay
row,Binder,Neutralization IC50 (RSV subtype A) [µg/mL]
1,"ADI-41515 (antibody, V domains shown) VH: QVQLVESGGGLVQPGGSLRLSCAASGFTFSDYAMSWVRQAPGKGLVWVSSISGSGKFTYYEDSLRGRVTISRDNSKNTVYLHMNSLRTEDTALYYCARLRIPVINEVDGAMDVWGQGTTVTVSS VL: SYELTQLPSVSVSPGQTARITCSGDALPKKFAYWYQQKSGQAPVLVIYEDTGRPSGIPERFSGSTSGTTATLTINGAQVEDEGDYYCYSADSSDNQGVFGGGTKVTVL",> 25
2,"ADI-41505 (antibody, V domains shown) VH: QVQLQQSGAGLLKPSETLSLTYVVYGGSFSGYYWSWIRQPPGKGLEWVGDINHSTTTNYNPSLESRITISIDTSKNQFSLNLSSVTAADSAVYYCARGPKECTSSSCDRFGVDYFYYGMDVWGRGTTVTVSS VL: QSVLTQPPSVSGAPGQRVTISCTGSSANIGAGYDVHWYQQFPGTAPKLLIFGNSNRPSGVPDRFSGSKSGTSASLAITGLQAGDEADYYCQSYDGTLGGWVFGGGTQLTVL",> 25
3,"ADI-41518 (antibody, V domains shown) VH: EVQLVESGGGLVKPGGSLRLSCAASGFTFSSYSMNWVRQAPGKGLEWVSSISSSSSYINYADSVKGRFTISRDNAKNSLYLQMNSLRAEDTALYYCARDLGYCSDTSCTPGIGYWGQGTLVTVSS VL: QPVLTQPPSVSGAPGQRVTISCTGSSSNIGAGYDVHWYQQLPGTAPKLLIYGNSNRPSGVPDRFSGSKSGTSASLAITGLQAEDEADYYCQSYDSGLSPWVFGGGTKLTVL",> 25
4,"ADI-41522 (antibody, V domains shown) VH: QVQLVQSGAEVKKPGSSVKVSCKASGGTFNNFPISWVRQAPGQGLEWMGGIIPMFGRANYAQKFQGRVTITADESTTTVYMALRSLRSEDTAVYYCARPDYDVLTGFEGAFDIWGQGTMVTVSS VL: QSALTQPASVSGSPGQLITISCTGTSRDVGGYNYVSWYQQHPGKAPKLMIYDVTNRPSGVSNRFSGSKSGNTASLTISGLQSEDEADYYCSSYTSTTTWVFGGGTKLTVL",> 25
5,"ADI-41519 (antibody, V domains shown) VH: QVQLVESGPGLVKPSETLSLTCNVSGGSIITSGSYWGWIRQPPGKGLTWIGSISYSGTTYYNPSLRSRLTISLDTSRNHFSLQLTSVSAADTAVYYCARAFYEVWTGSEIPGDFDRWGQGTLVTVSS VL: EIVLTQSPGTLSLSPGERATLSCRASQSVSSSYLAWYQQKPGQAPRLLIYGASSRAIDIPDRFSGSGSGTDFTLTISRLEPEDFAVYYCQQFRRSPWTFGQGTKVDIK",> 25
6,"ADI-41467 (antibody, V domains shown) VH: EVQLVESGGGLVKPGGSLRLSCAASGFSFSSYNMNWVRQAPGKGLEWVSSISGGSSFVNYADSVKGRFTISRDNAKNSLYLQMSSLKAEDTAIYYCARDPVYCSAASCSAYFDSWGQGSLVTVSS VL: QSVLTQPPSVSGAPGQRVTISCTGSSSNIGAGYDVHWYQQLPGTAPKLLIYGNNNRPSGVPDRFSGFKSGSSASLAITGLQAEDEADYYCQSYDIGLSDSHVVFGGGTQLTVL",> 25
7,"ADI-41520 (antibody, V domains shown) VH: EVQLLESGGGVVRPGGSLRLSCAASGFSFDDYGMTWVRQAPGKGLEWVSGINWNGISTDYADSVKGRFTISRDNAKNSVYLQMNSLRAEDTALYYCARIGGVVVIASTAYYYGMDVWGQGTTVTVSS VL: DIQLTQSPSSLSAYVGDRVTITCRASQSIRNHLNWYQQKPGKAPQLLIYTASSLQDGVPSRFSGSGSGTDFTLAISSLQPEDFATYYCQQSHSMPPTFGQGTRLEIK",> 25
8,"ADI-41542 (antibody, V domains shown) VH: EVQLVESGVAVKKPGESLKISCKGSGYNFDSFWIGWVRQLPGKGLEWMGIIFPGDSDTRYGPSFQGQVTISADKSINTAYLQWRSLKASDTAMYYCARHGLGGYDNSGYNLWGHGTMVTVSS VL: DIVMTQSPSSLSASVGDRVTITCQASHDISTSLNWYQQKPGKAPNLLISDASTLERGVPSRFSGGGSGTEFTFTISSLQPEDIATYYCQQFENLPITFGQGTRLEIK",0.69

# Target: RSV F on RSV-A2 virus (Respiratory syncytial virus (RSV-A2))
# Assay: cell-based or functional assay
row,Binder,Neutralization IC50 (RSV subtype A) [µg/mL]
1,"ADI-41347 (antibody, V domains shown) VH: EVQLVESGPGLVKPSGTLSLTCAVSGGSVSSDNWWSWVRQPPGKGIEWIGEIYPSGGTNYNPSLNSRVTISVDKSKNQFSLKLNSVTAADTAIYYCARAPFDSSGYHSNSVWGQGTLVTVSS VL: ETTLTQSPLSLPVTPGEPASISCRSSQSLLHSNGHNYLDWYVQKPGQSPQLLIYLSSNRASGVPDRFSGSGSGTDFTLRISRVEAEDVGVYYCMQPLQTPQTFGQGTKVEIK",> 25
2,"ADI-41323 (antibody, V domains shown) VH: EVQLLESGGGVVRPGGSLRLSCAASGFTFDDYAMGWVRQAPGKGLEWVSGITWNAGSTAYAGSVKGRFTISRDNAKNSLFLQMNSLRAEDTAFYLCARHVDSSGPVARHFDYWGQGTLVTVSS VL: NFMLTQPHSVSESPGKTVTISCTRSSGSIARNYVQWYQQRPGSAPTIVIYEDNQRPSGVPDRFSGSIDSSSNSASLTISGLKTEDEADYYCQSYDPSNVVFGGGTKLTVL",> 25
3,"ADI-41345 (antibody, V domains shown) VH: EVQLVQSGAEVRKPGESLKISCKGSGYNFASYWIAWVRQMPGKGLEWMGIIFPGDSDTRYSPSFQGQVTISVDKSISTAYLQWSSLKASDTAIYYCATSKYTFGYLDWGQGTLVTVSS VL: NFMLTQPHSVSESPGKTVTISCTRSSGSIASNYVQWYQQRPGSAPTTVIYEDNQRPSGVPDRFSGSIDSSSNSASLTISGLKTEDEADYYCQSYDTSNQVFGTGTKVTVL",> 25
4,"ADI-41346 (antibody, V domains shown) VH: QVQLVQSGPEVKKPGESLKISCTLSASGLTTYWIGWVRQMPAKGLEWMGIIFPGDSDTRYSPSFQGQVTISADKSTNTAYLQWSGLKASDTAIYYCATLQTPVTGLDQWGQGTLVTVSS VL: NFMLTQPHSVSESPGKTVTISCTRSSGNIARSYVQWYQQRPGSAPTTVIHEDDQRPSGVPDRFSGSIDTSSNSASLTISGLKTEDEADYYCQSYDPSNYVFGTGTKVTVL",> 25
5,"ADI-41343 (antibody, V domains shown) VH: EVQLVESGGGLVKPGGSLRLSCAASGFTFSSYYMNWVRQAPGKGLEWVSSISGGSSYISYADSVKGRFTISRDNAKNSLYLQMNSLRAEDTAVYYCARVDTPMVRGYYFDYWGQGTLVTVSS VL: QSVLTQPPSVSGAPGRRVTISCTGSSSNIGAGYDVHWYQQLPGTAPKLLIFANSNRPSGVPDRFSGSKSGTSASLAITGLQAEDEADYYCQSYDSSLSGSVFGGGTKVTVL",0.177
6,"ADI-41344 (antibody, V domains shown) VH: EVQLVESGGGLVKPGGSLRLSCAASGSSFSSYYMNWVRQAPGKGLEWVSSISSSSTYIDYADSVKGRFTISRDNAKNSLFLQMNSLRAEDTAVYYCARVSSPMIRGYYLDYWGQGTLVTVSS VL: QPVLTQPPSVSGAPGQRVTISCTGSSSNIGAGYDVHWYQQLPGTAPKLVIHGNSNRPSGVPDRFSGSKSGTSASLAITGLQGEDEADYYCQSYDSSLSGSVFGGGTKLTVL",0.0637
7,"ADI-41341 (antibody, V domains shown) VH: QVQLVQSGAEVKKPGSSVKVSCKASGGTFSSYATHWVRQAPGQGLEWMGGIIPIFGRATYAQKFQGRVTISADESTSTAYMELSSLRSEDTAVYYCARGRDDRSGDHIAFLYHYGMDVWGQGSTVTVSS VL: QSVLTQPPSVSAAPGQKVSISCSGSSSNIGINHASWYQHLPGTAPKLLIYDNNKRPSGIPDRFSGSKSGTSATLGISGLQTGDEAAYYCGTWDTGLSAVVFGGGTKLTVL",> 25
8,"ADI-41340 (antibody, V domains shown) VH: QVQLVQSGAEVKTPGSSVKVSCKASGGTFRSYPITWVRQAPGQGLEWMGTVIPVFDTVNYAPKFQGRVSITADESTNTAYMELSSLRSDDSAVYYCARDLGWLRPMTTVTSPHFDYWGQGTLVTVSS VL: QSVLTQPASVSGSPGQSITISCTGTSSDVGGYDFVSWYQQHPGKAPKLMISEVTDRPSGVSNRFSGSKSGNTASLTISGLQAEDEADYYCTSYTSSRTYVFGTGTKLTVL",> 25
9,"ADI-41348 (antibody, V domains shown) VH: QVQLQESGPGLVKPSQTLSLTCAVSGGSISSGGYYWSWIRQHPGKGLEWIGYIYYSGSTYYNPSLKSPVTISVDTSKNQFSLKLTSVTAADTAVYYCARGDYYFDGSGRTTAAFDIWGQGTMVTVSS VL: DIQVTQSPSSLSASVGDRVTITCRASQSISTFLNWYQQKPGRAPKLLIYDASNLQSGVPSRVSGSGSGTDFTLTISSLHPEDFATYYCQQSYTTPYTFGQGTKVDIK",0.0765
10,"ADI-41322 (antibody, V domains shown) VH: QVQLVQSGAEVKKPGSSVRVSCKASGGSFSSYATSWVRQAPGQGLEWMGGIIPMYDAVNYAQKFQGRVTITADESTTTAYMELSSLRSEDTAVYYCARSSGYTGTNFFDYWGQGTLVTVSS VL: DIQMTQSPSSVSASVGDRVTITCRASQDISSWLAWYQQKPGKAPKLLIYTASSLQSGVPSRFSGSGSGTDFTLTISRLQPEDFATYYCQQANSFPRVTFGGGTKVEIK",> 25
11,"ADI-41342 (antibody, V domains shown) VH: QVQLVQSGAEVKKPGSSVKVSCKASGGTLTSYGVSWVRQAPGQGLEWMGGIIPIFGTVDYAQKFQGRVTITADEPTSTAYMELSSLTSDDTAVYYCARDPWVSGPVEFYYYFDVWGRGTLVTVSS VL: DIVLTESPATLSLSPGERATLSCRASQSINNRYLAWYQQKPGQAPRLLIFGASSRATGIPDRFSGSGSGTDFTLTISRLEPEDFAVYYCQQYGSTPPTFGQGTKVEIK",> 25
12,"ADI-41324 (antibody, V domains shown) VH: EVQLVESGGGLVQPGGSLRLSCAASGFTVSNNYMRWVRQAPGKGLEWVSVIYSSGSTDYADSVKGRFTISRDNSKNTLYLQMNSLRAEDTAVYYCARERTLFYYDSSGFFDYWGQGTLVTVSS VL: ETTLTQSPGTLSLSPGERATLSCRASQSVDSSYLAWYQQKPGQAPRLLIYGASNRATGIPDRFSGSGSGTDFTLTISRLEPEDFAVYYCQQYGRSLTFGGGTKLEIK",> 25
13,"ADI-41349 (antibody, V domains shown) VH: EVQLLESGGGLVQPGRSLRLSCTGSGFTFGDYAMNWVRQAPGKGLEWVGLIRSKDYGGTTEFAASLKGRLTISRDDSKSIAYLQMHSLKTEDSAVYYCTRAHLTDYTDINGYQYYFDYWGQGSPVTVSS VL: DIQMTQSPSSLSASVGDRVTITCQASQDISNFLNWYQQRPGKAPKLLIHDASNLETGVPSRFSGSGSRTEFTFTISSLQPEDIGTYYCQHYDNFPYTFGQGTKVEIK",> 25
